“And” between values parts separate entries of the source, which are not always exact repeats. Equal values may be shown once. Square brackets hold non-standard residues; d marks the D form. Ends that are not written are not given here. MCA = alpha-methylhydrocinnamic acid (2-methyl-3-phenylpropanoic acid); PhLac = O=C(O)[C@@H](O)Cc1ccccc1
How the values were obtained:
human glucagon receptor [1] = target: T1, human glucagon receptor (human, UniProt P47871 26-477); assay: SPA competition vs 125I-glucagon, receptor membranes
T1 construct: whole, on cells; cAMP assay: transfected HEK293 cells

human glucagon receptor [2] = target: T1, human glucagon receptor; assay: cell-based or functional assay

T1 sequence (P47871 26-477): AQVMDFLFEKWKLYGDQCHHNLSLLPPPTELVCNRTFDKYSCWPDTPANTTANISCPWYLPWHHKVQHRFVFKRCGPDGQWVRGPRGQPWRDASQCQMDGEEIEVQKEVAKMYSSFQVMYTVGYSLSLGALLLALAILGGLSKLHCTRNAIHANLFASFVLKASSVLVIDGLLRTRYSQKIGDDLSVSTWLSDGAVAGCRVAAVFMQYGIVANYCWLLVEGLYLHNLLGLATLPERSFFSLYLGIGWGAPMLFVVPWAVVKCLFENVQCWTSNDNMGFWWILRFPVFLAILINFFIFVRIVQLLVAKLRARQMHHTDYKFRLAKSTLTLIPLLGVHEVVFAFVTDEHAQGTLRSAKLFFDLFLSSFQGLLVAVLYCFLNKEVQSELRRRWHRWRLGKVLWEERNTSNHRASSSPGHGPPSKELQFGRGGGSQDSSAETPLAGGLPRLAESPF

Row | Binder | IC50 (human glucagon receptor [1]) [nM] | IC50 (cAMP, inhibit 0.2 mM Glucagon) (human glucagon receptor [2])
1 | [PhLac]TC(PEG 20 kDa)EYSKYLDSRRAQDFVQWLMNT-NH2 [[PLA^6, C^8(20kDaPEG), E^9]Glucagon(aa6-29)-NH2] | 303 | 236 nM and 92 nM
2 | [MCA]TSEYSKYLDSRRAQDFVC(PEG 20 kDa)WLMNT-NH2 [[MCA^6, E^9, C^24(20kDaPEG)]Glucagon(aa6-29)-NH2] | 208 | –
3 | [PhLac]TSEYC(PEG 20 kDa)KYLDSRRAQDFVQWLMNT-NH2 [[PLA^6, E^9, C^11(20kDaPEG)]Glucagon(aa6-29)-NH2] | 776 | 664 nM
4 | [PhLac]TSEYSKYLDSRRAQDFVC(PEG 20 kDa)WLMNT-NH2 [[PLA^6, E^9, C^24(20kDaPEG)]Glucagon(aa6-29)-NH2] | 90 | 126 nM
5 | [PhLac]TSEYSKYLDSRRAQDFVC(PEG 1.2 kDa)WLMNT-NH2 [[PLA^6, E^9,C^24(1.2 kDaPEG)]Glucagon(aa6-29)-NH2] | 4.7 | 18 nM
6 | C(PEG 1.2 kDa)FTSEYSKYLDSRRAQDFVQWLMNT-NH2 [[C^5(1.2kDaPEG), E^9]Glucagon(aa5-29)-NH2] | 1080 | 2280 nM
7 | C(PEG 5 kDa)FTSEYSKYLDSRRAQDFVQWLMNT-NH2 [[C^5(5kDaPEG), E^9]Glucagon(aa5-29)-NH2] | 634 | 1610 nM
8 | C(PEG 20 kDa)FTSEYSKYLDSRRAQDFVQWLMNT-NH2 [[C^5(20kDaPEG), E^9]Glucagon(aa5-29)-NH2] | 331 | 976 nM
9 | C(PEG 3.4 kDa)FTSEYSKYLDSRRAQDFVQWLMNT-NH2 (also: dimer: Cys5 of two chains joined by 3.4 kDa PEG) [3.4kDaPEG-dimer[C^5, E^9]Glucagon(aa5-29)-NH2] | 435 | 1340 nM
10 | [PhLac]TC(PEG 5 kDa)EYSKYLDSRRAQDFVQWLMNT-NH2 [[PLA^6, C^8(5kDaPEG), E^9]Glucagon(aa6-29)-NH2] | 948 | 216 nM

— US20110098217A1 (INDIANA UNIVERSITY RESEARCH AND TECHNOLOGY, published 2011)
